T1: SAP90/PSD-95 associated protein 3 (endogenous, mouse brain) (mouse (endogenous in striatum), UniProt Q6PFD5 1-977)
T1 sequence (looked up): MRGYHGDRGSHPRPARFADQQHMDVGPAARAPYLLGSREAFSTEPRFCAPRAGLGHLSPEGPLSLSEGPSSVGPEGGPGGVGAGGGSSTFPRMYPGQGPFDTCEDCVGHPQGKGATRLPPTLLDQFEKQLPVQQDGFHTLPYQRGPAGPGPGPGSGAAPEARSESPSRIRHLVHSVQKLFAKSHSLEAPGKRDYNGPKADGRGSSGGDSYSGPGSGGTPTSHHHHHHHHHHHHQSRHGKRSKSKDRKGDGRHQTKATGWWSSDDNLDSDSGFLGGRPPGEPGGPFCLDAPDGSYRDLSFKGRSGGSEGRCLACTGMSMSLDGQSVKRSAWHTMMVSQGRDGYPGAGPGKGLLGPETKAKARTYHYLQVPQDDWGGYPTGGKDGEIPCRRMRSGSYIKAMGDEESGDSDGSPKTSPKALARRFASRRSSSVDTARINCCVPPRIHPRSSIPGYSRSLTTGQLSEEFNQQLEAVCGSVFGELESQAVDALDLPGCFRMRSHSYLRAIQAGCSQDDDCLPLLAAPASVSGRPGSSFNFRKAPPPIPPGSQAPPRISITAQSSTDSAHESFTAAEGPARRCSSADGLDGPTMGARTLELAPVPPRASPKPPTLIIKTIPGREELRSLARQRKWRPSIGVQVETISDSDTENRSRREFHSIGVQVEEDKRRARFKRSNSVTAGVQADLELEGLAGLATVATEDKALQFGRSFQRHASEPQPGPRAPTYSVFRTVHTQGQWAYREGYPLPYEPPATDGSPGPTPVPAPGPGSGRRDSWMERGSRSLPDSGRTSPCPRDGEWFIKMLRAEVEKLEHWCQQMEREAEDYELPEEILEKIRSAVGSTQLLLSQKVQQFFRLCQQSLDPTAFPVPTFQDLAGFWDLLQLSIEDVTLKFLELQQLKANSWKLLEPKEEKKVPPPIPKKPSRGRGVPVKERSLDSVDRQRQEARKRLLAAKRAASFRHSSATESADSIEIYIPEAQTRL


Columns and labels:
[1] = target: HA-tagged spinophilin (human, full-length) (human, UniProt Q96SB3 1-817); assay: co-IP
[2] = target: T1, SAP90/PSD-95 associated protein 3 …; assay: co-IP

HA-tagged spinophilin (human, full-length), sequence (Q96SB3 whole entry): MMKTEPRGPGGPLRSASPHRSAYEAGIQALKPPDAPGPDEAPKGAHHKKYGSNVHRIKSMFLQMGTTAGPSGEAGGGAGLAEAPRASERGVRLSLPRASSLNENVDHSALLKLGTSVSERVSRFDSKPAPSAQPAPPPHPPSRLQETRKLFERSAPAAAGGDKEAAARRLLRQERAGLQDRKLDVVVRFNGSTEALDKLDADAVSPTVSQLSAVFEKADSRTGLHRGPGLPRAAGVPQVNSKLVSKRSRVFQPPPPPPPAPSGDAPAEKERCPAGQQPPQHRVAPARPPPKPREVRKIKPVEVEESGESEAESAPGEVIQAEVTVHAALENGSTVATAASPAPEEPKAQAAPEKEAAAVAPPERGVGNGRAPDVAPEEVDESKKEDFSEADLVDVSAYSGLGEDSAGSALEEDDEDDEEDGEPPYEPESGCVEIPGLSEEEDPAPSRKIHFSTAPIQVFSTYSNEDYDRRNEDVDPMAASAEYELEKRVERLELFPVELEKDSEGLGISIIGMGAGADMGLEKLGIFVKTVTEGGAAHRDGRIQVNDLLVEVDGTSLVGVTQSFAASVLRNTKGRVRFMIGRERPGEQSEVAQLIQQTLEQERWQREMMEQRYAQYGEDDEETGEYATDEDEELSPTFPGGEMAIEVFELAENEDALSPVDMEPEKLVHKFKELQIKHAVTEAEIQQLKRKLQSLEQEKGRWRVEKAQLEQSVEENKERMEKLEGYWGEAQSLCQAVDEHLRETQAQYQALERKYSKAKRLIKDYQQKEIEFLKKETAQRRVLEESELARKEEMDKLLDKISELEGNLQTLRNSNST

fold change of association, PKCbeta overexpressed and activated over control [1] [fold]	fold change of association, mGluR5 overexpressed over control [1] [fold]	fold greater association, WT over SAPAP3 KO [2] [fold]	Binder
~3.3	~12	–	V5-tagged SAPAP3 (rat) (natural protein, UniProt P97838 1-977, looked up) MRGYHGDRGSHPRPARFADQQHMDVGPAARAPYLLGSREAFSTEPRFCAPRAGLGHLSPEGPLSLSEGPSSVGPEGGPGGVGAGGSSSTFPRMYPGQGPFDTCEDCVGHPQGKGATRLLPTFLDQFEKQLPVQQDGFHTLPYQRGPAGPGPGPGSGAAPEARSESPSRIRHLVHSVQKLFAKSHSLEAPGKRDYNGPKAEGRSSSGGDSYSGPGSGGPPTSHHHHHHHHHHHHQSRHGKRSKSKDRKGDGRHQTKATGWWSSDDNLDSDSGFLGGRPPGEPGGPFCLDAPDGSYRDLSFKGRSGGSEGRCLACTGMSMSLDGQSVKRSAWHTMMVSQGRDGYPGAGPGKGLLGPETKAKARTYHYLQVPQDDWGGYPTGGKDGEIPCRRMRSGSYIKAMGDEESGDSDGSPKTSPKALARRFASRRSSSVDTARINCCVPPRIHPRSSIPGYSRSLTTGQLSEEFNQQLEAVCGSVFGELESQAVDALDLPGCFRMRSHSYLRAIQAGCSQDDDCLPLLAAPASVSGRPGSSFNFRKAPPPIPPGSQAPPRISITAQSSTDSAHESFTAAEGPARRCSSADGLDGPTMGARTLELAPVPPRASPKPPTLIIKTIPGREELRSLARQRKWRPSIGVQVETISDSDTENRSRREFHSIGVQVEEDKRRARFKRSNSVTAGVQADLELEGLAGLATVATEDKALQFGRPFQRQASEPQPGPRAPTYSVFRTVHTQGQWAYREGYPLPYEPPATDGSPGPPPVPAPGPGSGRRDSWMERGSRSLPDSGRTSPCPRDGEWFIKMLRAEVEKLEHWCQQMEREAEDYELPEEILEKIRSAVGSTQLLLSQKVQQFFRLCQQSLDPTAFPVPTFQDLAGFWDLLQLSIEDVTLKFLELQQLKANSWKLLEPKEEKKVPPPIPKKPSRGRGVPVKERSLDSVDRQRQEARKRLLAAKRAASFRHSSATESADSIEIYIPEAQTRL
–	–	~3	spinophilin (endogenous, mouse brain) (natural protein) not shown
